What all share (experiment): BLI
What all share (conditions): both partners purified

For assay [1], the target named is T1, recombinant SARS-CoV-2 RBD, Alpha (B.1.1.7), N501Y (SARS-CoV-2, Alpha (B.1.1.7) RBD N501Y, N501Y).
T1 construct: also called RBD_(N501Y); source: bought: ACRO Biosystems

Assay [2] deals with T2, recombinant SARS-CoV-2 RBD, Beta (B.1.351), K417N, E484K, N501Y (SARS-CoV-2, Beta (B.1.351), K417N | E484K | N501Y).
T2 construct: source: bought: ACRO Biosystems

Assay [3] concerns the target T3, recombinant SARS-CoV-2 RBD, Gamma (P.1), K417T, E484K, N501Y (SARS-CoV-2, Gamma (P.1), K417T | E484K | N501Y).
T3 construct: source: bought: ACRO Biosystems

In assay [4] the target is T4, recombinant SARS-CoV-2 RBD, Delta (B.1.617.2), L452R, T478K (SARS-CoV-2, Delta (B.1.617.2), L452R | T478K).
T4 construct: also called Delta variant RBD; source: bought: ACRO Biosystems

In assay [5] the target is T5, SARS-CoV-2 RBD Alpha (B.1.1.7) N501Y (SARS-CoV-2, Alpha (B.1.1.7) RBD N501Y, N501Y).
T5 construct: also called RBD N501Y; source: bought: ACRO Biosystems

The target of assay [6] is T6, SARS-CoV-2 RBD Beta (B.1.351) (SARS-CoV-2, Beta (B.1.351), K417N | E484K | N501Y).
T6 construct: also called B.1.351/K417N, E484K, N501Y; source: bought: ACRO Biosystems

Assay [7] concerns the target T7, SARS-CoV-2 RBD Gamma (P.1) (SARS-CoV-2, Gamma (P.1), K417T | E484K | N501Y).
T7 construct: also called P.1/K417T, E484K, N501Y; source: bought: ACRO Biosystems

For assay [8], the target named is T8, SARS-CoV-2 RBD Delta (B.1.617.2) (SARS-CoV-2, Delta (B.1.617.2), L452R | T478K).
T8 construct: also called B.1.617.2/L452R, T478K; source: bought: ACRO Biosystems

B1: NIH-CoVnb-112 (VHH)
VHH: DVQLQESGGGLVQPGGSLRLSCAASGLTLDYYAIGWFRQAPGKEREGVSCISSSDGSTYYADSVKGRFTTSRDNAKNTVYLQMNSLKPEDTAVYYCAAVPSTYYSGTYYYTCHPGGMDYWGKGTQVTVSS
Consider B1, for which the Kd (usually the concentration at which binding is half-saturated) in assay [1] stood at 3 nM; in assay [2], 4.28 nM; in assay [3], 4.16 nM; in assay [4] it was 1.66 nM. The kon (commonly the rate constant with which the complex forms) in assay [4] was 461000 M⁻¹ s⁻¹.

B2: NIH-CoVnb-112 (VHH)
VHH: B1 VHH
On to B2, for which the koff (usually the rate constant with which the complex falls apart) came out at 0.000428 s⁻¹ in assay [5], 0.000705 s⁻¹ in assay [6], 0.000822 s⁻¹ in assay [7] and 0.000609 s⁻¹ in assay [8]. For the same molecule, the kon in assay [5] was 153000 M⁻¹ s⁻¹; in assay [6], 201000 M⁻¹ s⁻¹; in assay [7] it was 214000 M⁻¹ s⁻¹.

Values taken from article PMC8928829 (mAbs, 2022).
